Active TGF -1 as % Control (TF1 monocytes, TGF-1 ELISA), 25 nmol/L Leu^27-IGF-II data for 1 substance are collected here from patent US7244707.

This test addresses cation-independent mannose-6-phosphate (CIM6P) receptor, human (human) (UniProt P11717). The test can be described thus: cell-based or functional assay.
Chain of UniProt P11717 (P11717 41-2491): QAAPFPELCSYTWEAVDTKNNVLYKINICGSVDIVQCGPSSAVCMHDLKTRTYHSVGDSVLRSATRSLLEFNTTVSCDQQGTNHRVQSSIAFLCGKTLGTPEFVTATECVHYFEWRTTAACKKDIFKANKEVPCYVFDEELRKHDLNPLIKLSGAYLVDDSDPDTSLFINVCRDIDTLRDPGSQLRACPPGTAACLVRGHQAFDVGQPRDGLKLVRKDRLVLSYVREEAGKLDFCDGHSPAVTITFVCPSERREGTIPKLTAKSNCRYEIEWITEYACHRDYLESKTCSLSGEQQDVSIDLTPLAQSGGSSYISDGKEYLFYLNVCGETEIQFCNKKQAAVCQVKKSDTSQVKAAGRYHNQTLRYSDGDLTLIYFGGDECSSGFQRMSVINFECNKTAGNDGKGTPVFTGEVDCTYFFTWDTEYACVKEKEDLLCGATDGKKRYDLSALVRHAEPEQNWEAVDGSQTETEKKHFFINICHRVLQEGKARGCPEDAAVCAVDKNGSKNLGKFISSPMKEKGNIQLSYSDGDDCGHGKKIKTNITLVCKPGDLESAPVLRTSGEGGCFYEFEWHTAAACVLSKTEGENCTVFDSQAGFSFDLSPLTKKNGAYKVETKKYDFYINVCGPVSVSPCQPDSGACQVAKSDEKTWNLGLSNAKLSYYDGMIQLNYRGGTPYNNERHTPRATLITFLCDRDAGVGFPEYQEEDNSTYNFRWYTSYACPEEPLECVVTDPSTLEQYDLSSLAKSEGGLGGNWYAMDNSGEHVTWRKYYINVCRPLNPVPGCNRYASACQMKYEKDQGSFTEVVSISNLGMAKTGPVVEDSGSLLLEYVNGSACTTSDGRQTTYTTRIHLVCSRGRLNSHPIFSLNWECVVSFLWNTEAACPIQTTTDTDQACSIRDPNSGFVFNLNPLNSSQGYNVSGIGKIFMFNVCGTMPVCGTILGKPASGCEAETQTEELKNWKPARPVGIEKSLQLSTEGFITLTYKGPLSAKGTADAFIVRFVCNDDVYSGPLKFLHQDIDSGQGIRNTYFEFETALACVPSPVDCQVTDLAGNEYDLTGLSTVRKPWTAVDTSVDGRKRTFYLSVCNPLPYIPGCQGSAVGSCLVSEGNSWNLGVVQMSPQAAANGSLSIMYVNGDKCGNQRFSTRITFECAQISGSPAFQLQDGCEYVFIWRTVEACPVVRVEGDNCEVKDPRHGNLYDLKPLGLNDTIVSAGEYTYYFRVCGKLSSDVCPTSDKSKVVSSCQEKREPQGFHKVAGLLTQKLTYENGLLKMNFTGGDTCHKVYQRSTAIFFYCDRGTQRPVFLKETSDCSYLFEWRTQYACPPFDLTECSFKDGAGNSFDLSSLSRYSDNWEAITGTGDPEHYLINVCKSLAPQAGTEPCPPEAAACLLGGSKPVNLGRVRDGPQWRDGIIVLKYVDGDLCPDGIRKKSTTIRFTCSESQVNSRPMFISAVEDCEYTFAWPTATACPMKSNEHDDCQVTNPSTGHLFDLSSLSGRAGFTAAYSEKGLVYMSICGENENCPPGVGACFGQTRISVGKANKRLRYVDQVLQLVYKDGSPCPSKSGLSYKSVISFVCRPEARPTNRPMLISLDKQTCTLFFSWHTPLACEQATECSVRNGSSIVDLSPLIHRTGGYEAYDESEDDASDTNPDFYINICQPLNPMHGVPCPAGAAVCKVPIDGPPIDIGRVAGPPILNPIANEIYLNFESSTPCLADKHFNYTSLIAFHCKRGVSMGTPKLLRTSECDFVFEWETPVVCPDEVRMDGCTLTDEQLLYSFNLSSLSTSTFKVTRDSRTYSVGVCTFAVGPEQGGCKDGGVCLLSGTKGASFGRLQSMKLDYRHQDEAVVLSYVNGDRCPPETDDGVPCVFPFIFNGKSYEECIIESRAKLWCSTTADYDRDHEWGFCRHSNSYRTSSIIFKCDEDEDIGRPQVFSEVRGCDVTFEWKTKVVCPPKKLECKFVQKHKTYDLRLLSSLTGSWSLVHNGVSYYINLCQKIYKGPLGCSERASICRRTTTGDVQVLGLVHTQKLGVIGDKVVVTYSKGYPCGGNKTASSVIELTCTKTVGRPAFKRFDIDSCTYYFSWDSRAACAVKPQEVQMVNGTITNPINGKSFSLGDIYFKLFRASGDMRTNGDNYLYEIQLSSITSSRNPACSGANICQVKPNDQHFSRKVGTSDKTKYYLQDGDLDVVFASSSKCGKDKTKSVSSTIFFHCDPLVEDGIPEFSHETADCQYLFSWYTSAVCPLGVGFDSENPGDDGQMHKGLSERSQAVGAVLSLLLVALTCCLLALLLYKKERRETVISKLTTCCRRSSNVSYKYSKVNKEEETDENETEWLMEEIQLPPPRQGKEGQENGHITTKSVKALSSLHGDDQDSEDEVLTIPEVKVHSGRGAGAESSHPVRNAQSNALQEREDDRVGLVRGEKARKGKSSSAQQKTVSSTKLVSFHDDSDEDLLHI

Turning to “Leu^27IGF-II (receptor grade) (from UniProt P01344 25-91) (ligand)”, the Active TGF -1 as % Control (TF1 monocytes, TGF-1 ELISA), 25 nmol/L Leu^27-IGF-II was 12.7 % Control.
